Results from US20220119459A1 (OXFORD UNIVERSITY INNOVATION, published 2022).
Substitutions are numbered along the chain they refer to. Numbers in names are those of the source.

B1: SpyCatcher002 D5A variant with proline at position 92 and aspartic acid at position 100 (SEQ ID NO:47) (designed binder)
chain: GAMVATLSGLSGEQGPSGDMTTEEDSATHIKFSKRDEDGRELAGATMELRDSSGKTISTWISDGHVKDFYLYPGKYTFVETAAPDGYEVATPITFTVNEDGQVTVNGEATKGDAHT
B2: SpyCatcher002 D5A variant with aspartic acid at position 100 (SEQ ID NO:46) (designed binder)
chain: B1 chain with P92A
B3: SpyCatcher002 D5A variant with proline at position 92 (SEQ ID NO:45) (designed binder)
chain: B1 chain with D100Q

Experiments:
SpyCatcher002 = experiment: 0.5 µM each, PBS pH 7.5, 25 °C, SDS-PAGE with Coomassie staining (FIG. 15A)
Target sequence in this assay (chain, as listed by the source): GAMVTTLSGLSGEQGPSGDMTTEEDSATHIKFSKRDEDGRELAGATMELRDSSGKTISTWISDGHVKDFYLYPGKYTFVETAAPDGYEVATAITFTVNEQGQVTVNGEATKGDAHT

AP-SpyTag002-MBP = target: T1, AP-SpyTag002-MBP; experiment: 0.5 µM each, PBS pH 7.5, 25 °C, SDS-PAGE with Coomassie staining (FIG. 16)
T1 construct: not shown: AP peptide tag for site-specific biotinylation; only primer DNA is printed for it

| Molecule | percent increase in activity against SpyTag002 (SEQ ID NO: 3) (SpyCatcher002) [%] | reaction rate (second-order rate constant) (AP-SpyTag002-MBP) [M⁻¹ s⁻¹] |
| --- | --- | --- |
| SpyTag002 T3H-MBP | 35 |  |
| B1 |  | 20300 |
| B2 |  | 15500 |
| B3 |  | 14000 |
